Target: the molecule itself
Test: SEC; Superdex 200 HR 10/300 GL, 50 mM HEPES pH 7.5, 2 M NaCl, 1 mM DTT, without glycerol; His-HvGK from cells grown in ATCC, GluMM or FruMM; mass by standard curve

B1: N-terminally His-tagged Haloferax volcanii glycerol kinase (His-HvGK), wildtype, purified from H. volcanii (enzyme, UniProt D4GYI5 1-510, looked up)
chain: MSGETYVGAIDQGTTGTRFMVFDHDGKVVANAYEKHEQIYPEPGWVEHDANEIWDNTKQVIDAALSSAGLDAEQLEAIGITNQRETTLVWDRETGQPIHNAIVWQDRRTTDRIETLEAEGKTDDVRAKTGLEPDAYFSATKAEWLLDNSDPIKLQRSRPEDIRDRAADGELAFGTIDTWLIYNLTGNHITDVTNASRTMLFNIHDMEWDDELLDEFNVPRELLPEVRPSSDDDYYGTTDADGFLGAEVPVAGALGDQQAALFGQTCFDAGDAKNTYGTGSFMLMNTGDEAVMSEHGLLTTVGFQRSGEPVQYALEGSIFITGAAIEWLEDMTLIDNAAESEKLARSVESTDGVYFVPAFTGLGAPHWDQRARGTIVGMTRGTRREHIVRATLESIAFQTRDVAEAMESDSEIDLSSLRVDGGAVKNNFLCQLQSNILDTEIVRPQVDETTALGAAYAAGLAVGYWETLDELRENWQVDREFAPKDPQNVEHRYGRWKEAVDRSLDWAREE
modifications: acetyl-lysine at K153, partial occupancy by AQUA-MS (50% in FruMM, 33% in ATCC rich medium, 17% in GluMM)
notes: Glycerol kinase (GlpK) of Haloferax volcanii, UniProt D4GYI5, gene hvo_1541; theoretical molecular weight 56.7 kDa monomer; The glpK gene was amplified and cloned into a pJAM503 backbone modified for an N-terminal His-tag fusion (pJAM4351); also called His-HvGK wt; HvGKHv; source: H. volcanii, expressed from a plasmid, cells grown in ATCC 974 rich medium, GluMM or FruMM; purified (Ni-NTA); not …
  stoichiometry N: 2
